From patent publication US6342348
Blank lines part the entries; values can stand above or below the binder they belong to.

Tests used:
[1] = biological target: T1, recombinant soluble rat GDNFRα (rat) (UniProt Q62997); test: displacement of labelled rGDNF from soluble GDNFRα by unlabeled NTN (10 nm)
T1 sequence (looked up): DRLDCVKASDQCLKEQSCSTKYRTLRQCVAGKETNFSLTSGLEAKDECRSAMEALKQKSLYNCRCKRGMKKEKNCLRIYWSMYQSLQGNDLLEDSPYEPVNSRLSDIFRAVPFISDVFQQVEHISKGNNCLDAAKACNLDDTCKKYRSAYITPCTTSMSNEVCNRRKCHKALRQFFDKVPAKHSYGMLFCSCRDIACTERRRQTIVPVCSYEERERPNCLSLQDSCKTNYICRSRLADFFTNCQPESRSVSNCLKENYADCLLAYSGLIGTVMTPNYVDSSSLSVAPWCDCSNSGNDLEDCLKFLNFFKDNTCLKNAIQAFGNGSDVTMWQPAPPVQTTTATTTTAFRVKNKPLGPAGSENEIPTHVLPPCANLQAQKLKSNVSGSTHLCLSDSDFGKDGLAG

[2] = biological target: T2, rat NTNRα, endogenous, on embryonic rat spinal motoneurons (rat); test: cell-based or functional assay
T2 sequence (chain, GPI-linked): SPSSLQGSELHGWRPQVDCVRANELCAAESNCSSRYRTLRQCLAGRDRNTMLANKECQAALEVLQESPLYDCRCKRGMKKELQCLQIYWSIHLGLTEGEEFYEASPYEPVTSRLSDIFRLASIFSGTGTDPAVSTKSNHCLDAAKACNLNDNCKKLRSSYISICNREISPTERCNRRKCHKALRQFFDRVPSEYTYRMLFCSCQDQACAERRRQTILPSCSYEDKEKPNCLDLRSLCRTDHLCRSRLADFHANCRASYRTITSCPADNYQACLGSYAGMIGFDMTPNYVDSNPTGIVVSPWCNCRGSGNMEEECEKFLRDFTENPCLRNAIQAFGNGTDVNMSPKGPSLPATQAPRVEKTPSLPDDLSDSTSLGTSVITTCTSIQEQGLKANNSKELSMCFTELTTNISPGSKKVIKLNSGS

[3] = biological target: T1, recombinant soluble rat GDNFRα (rat); test: binding experiments with biotinylated ligand (format not described)
[4] = biological target: rat NTNRα-IgG fusion protein (soluble rNTNRα) (rat); test: binding experiments with biotinylated ligand (format not described); 'and vice versa'

- Kd [1]: > 0.001 µM
- Kd [3]: > 1000 µM
B1: Neurturin (NTN), species not stated (ligand, UniProt Q99748 96-197, looked up, species assumed)
Neurturin: ARLGARPCGLRELEVRVSELGLGYASDETVLFRYCAGACEAAARVYDLGLRRLRQRRRLRRERVRAQPCCRPTAYEDEVSFLDAHSRYHTVHELSARECACV
- decrease in survival response of embryonic rat spinal motoneurons to NTN after PIPLC treatment [2]: 50 to 90%

- Kd [4]: > 1000 µM
B2: GDNF, species not stated (ligand, UniProt P39905 78-211, looked up, species assumed)
Glial cell line-derived neurotrophic factor: SPDKQMAVLPRRERNRQAAAANPENSRGKGRRGQRGKNRGCVLTAIHLNVTDLGLGYETKEELIFRYCSGSCDAAETTYDKILKNLSRNRRLVSDKVGQACCRPIAFDDDLSFLDDNLVYHILRKHSAKRCGCI
